Each block holds one substance with its values, some of them ahead of it.
Tests used:
[1] = target: carcinoembryonic antigen (CEA) (UniProt P06731); test: SEC-HPLC shift; the labeled Fab in serum without CEA eluted at 10.331 min
[2] = target: somatostatin receptors on AR42J cells (rat); test: competition with ^111In(DTPA-octreotide) on AR42J cells, apparent IC50
[3] = target: binding target of the bombesin analog IMP493 (not named in the paragraph); test: assay not described
[4] = target: gastrin-releasing peptide receptor on PC-3 cells (UniProt P30550); test: competition with ^125I-BBN on PC-3 cells, repeat experiment
Chain of gastrin-releasing peptide receptor on PC-3 cells (P30550 whole entry): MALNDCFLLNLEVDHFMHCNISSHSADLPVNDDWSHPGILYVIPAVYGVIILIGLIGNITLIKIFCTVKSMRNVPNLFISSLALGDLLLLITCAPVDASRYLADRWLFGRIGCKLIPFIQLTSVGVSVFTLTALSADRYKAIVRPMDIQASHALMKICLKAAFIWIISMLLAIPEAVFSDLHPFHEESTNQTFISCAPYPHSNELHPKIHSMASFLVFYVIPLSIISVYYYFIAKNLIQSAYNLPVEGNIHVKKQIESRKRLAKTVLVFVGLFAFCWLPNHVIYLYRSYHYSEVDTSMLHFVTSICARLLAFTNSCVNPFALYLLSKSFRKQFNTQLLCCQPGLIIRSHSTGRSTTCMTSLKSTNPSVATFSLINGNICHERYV

Chain of somatostatin receptors on AR42J cells (rat) (P30680 whole entry): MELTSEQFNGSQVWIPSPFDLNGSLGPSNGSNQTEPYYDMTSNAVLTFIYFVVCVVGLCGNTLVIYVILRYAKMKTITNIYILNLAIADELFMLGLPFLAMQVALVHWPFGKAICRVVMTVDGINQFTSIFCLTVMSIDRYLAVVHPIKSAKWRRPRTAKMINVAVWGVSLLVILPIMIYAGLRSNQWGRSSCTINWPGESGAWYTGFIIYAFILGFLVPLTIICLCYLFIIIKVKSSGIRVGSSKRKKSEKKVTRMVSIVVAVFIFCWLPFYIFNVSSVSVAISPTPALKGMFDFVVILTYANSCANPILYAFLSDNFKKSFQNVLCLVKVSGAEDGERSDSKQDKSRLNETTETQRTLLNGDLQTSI
Chain of carcinoembryonic antigen (CEA) (P06731 35-685 limits assumed): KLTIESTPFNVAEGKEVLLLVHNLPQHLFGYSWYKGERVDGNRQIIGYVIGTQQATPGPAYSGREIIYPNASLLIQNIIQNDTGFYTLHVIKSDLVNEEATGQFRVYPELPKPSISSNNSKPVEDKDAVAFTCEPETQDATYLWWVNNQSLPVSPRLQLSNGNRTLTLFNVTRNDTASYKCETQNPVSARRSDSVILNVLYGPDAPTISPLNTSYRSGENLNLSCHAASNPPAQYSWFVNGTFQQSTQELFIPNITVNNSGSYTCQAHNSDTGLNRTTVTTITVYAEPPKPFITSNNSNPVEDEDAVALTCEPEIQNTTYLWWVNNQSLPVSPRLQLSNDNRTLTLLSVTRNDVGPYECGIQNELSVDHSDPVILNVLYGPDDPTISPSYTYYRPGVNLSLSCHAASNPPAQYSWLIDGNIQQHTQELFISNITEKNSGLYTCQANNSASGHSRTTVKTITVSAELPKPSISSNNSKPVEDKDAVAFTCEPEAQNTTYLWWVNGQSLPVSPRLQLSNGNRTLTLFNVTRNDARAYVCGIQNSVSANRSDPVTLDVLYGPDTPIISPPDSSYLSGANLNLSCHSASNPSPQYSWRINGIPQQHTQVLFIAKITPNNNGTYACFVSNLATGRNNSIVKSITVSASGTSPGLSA

SEC-HPLC retention time of major product after adding CEA [1]: 7.21 min
Substance: Al^18F(NODA-MPAES)-hMN-14 Fab′

IC50 [2]: 3.6 nM
Substance: Al^19F(IMP466) (Al^19F complex of NOTA-D-Phe-Cys-Phe-D-Trp-Lys-Thr-Cys-Throl) (peptide)

IC50 [2]: 13 nM
Substance: ^69Ga(IMP466) (peptide)

EC50 [3]: 59 nM
Substance: ^125I-Bombesin (Perkin-Elmer) (peptide)

IC50 [4]: 24.4 nM
Substance: commercially available BBN peptide (positive control)

Reference: US20140228541A1
